According to patent US20220220224A1 (Hoffmann-La Roche, published 2022):

Legend:
[1] = molecular target: T1, recombinant biotinylated monomeric Fc fusion of cynomolgus Folate Receptor 1 (cy FolR1 ECD-AcTev-Fcknob-Avi … (cynomolgus, UniProt P0DOX5 223-449 = IgG part, biotin on the C-terminal Avi tag)); experiment: SPR ProteOn, Fab analyte on immobilized antigen-Fc
T1 construct: also called cyFolR1-Fc; cyno FolR1
Method: (§1) Immobilization of antigens (ligand): Recombinant antigens were diluted with PBST (10 mM phosphate, 150 mM sodium chloride pH 7.4, 0.005% Tween 20) to 10 μg/ml, then injected at 30 μl/minute in vertical orientation. Injection of analytes: For ‘one-shot kinetics’ measurements, injection direction was changed to horizontal orientation, two-fold dilution series of purified Fab (varying concentration ranges) were injected simultaneously along separate channels 1-5, with association times of 200 s, and dissociation times of 600 s. Buffer (PBST) was injected along the sixth channel to provide an “in-line” blank for referencing. Association rate constants (kₒₙ) and dissociation rate constants (koff) were calculated using a simple one-to-one Langmuir binding model in ProteOn Manager v3.1 software by simultaneously fitting the association and dissociation sensorgrams. The equilibrium dissociation constant (KD) was calculated as the ratio koff/kₒₙ.

[2] = molecular target: T2, recombinant biotinylated monomeric Fc fusion of human Folate Receptor 1 (huFolR1 ECD-AcTev-Fcknob-Avi tag … (human, UniProt P0DOX5 223-449 = IgG part, biotin on the C-terminal Avi tag)); experiment: SPR ProteOn, Fab analyte on immobilized antigen-Fc
T2 construct: also called huFolR1-Fc; human FolR1-Fc
Method: as §1

[3] = molecular target: T3, recombinant biotinylated monomeric Fc fusion of murine Folate Receptor 1 (mu FolR1 ECD-AcTev-Fcknob-Avitag … (murine, UniProt P0DOX5 223-449 = IgG part, biotin on the C-terminal Avi tag)); experiment: SPR ProteOn, Fab analyte on immobilized antigen-Fc
T3 construct: also called muFolR1-Fc; murine FolR1
Method: as §1

[4] = molecular target: T4, recombinant biotinylated monomeric Fc fusion of human Folate Receptor 2 (hu FolR2 ECD-AcTev-Fcknob-Avi tag … (human, UniProt P0DOX5 223-449 = IgG part, biotin on the C-terminal Avi tag)); experiment: SPR ProteOn, Fab analyte on immobilized antigen-Fc
T4 construct: also called FolR2-Fc
Method: as §1

[5] = molecular target: T5, recombinant biotinylated monomeric Fc fusion of human Folate Receptor 3 (hu FolR3 ECD-AcTev-Fcknob-Avi tag … (human, UniProt P0DOX5 223-449 = IgG part, biotin on the C-terminal Avi tag)); experiment: SPR ProteOn, Fab analyte on immobilized antigen-Fc
T5 construct: also called FolR3-Fc
Method: as §1

[6] = molecular target: T1, recombinant biotinylated monomeric Fc …; experiment: SPR Biacore, avidity (bivalent, apparent KD), antigen-Fc on SA chip
Method: (§2) Binding of FolR1 binders as IgG or in the T-cell bispecific format to different recombinant folate receptors (human FolR1, 2 and 3, murine FolR1 and cynomolgus FolR1; all as Fc fusions) was assessed by surface plasmon resonance (SPR). All SPR experiments were performed on a Biacore T200 at 25° C. with HBS-EP as running buffer (0.01 M HEPES pH 7.4, 0.15 M NaCl, 3 mM EDTA, 0.005% Surfactant P20, Biacore, Freiburg/Germany).
Recombinant biotinylated monomeric Fc fusions of human, cynomolgus and murine Folate Receptor 1 (FolR1-Fc) were directly coupled on a SA chip using the standard coupling instruction (Biacore, Freiburg/Germany). The immobilization level was about 300-400 RU. The anti-FolR1 IgGs or T cell bispecifics were passed at a concentration range from 2.1 to 500 nM with a flow of 30 μL/minutes through the flow cells over 180 seconds. The dissociation was monitored for 600 seconds. Bulk refractive index differences were corrected for by subtracting the response obtained on reference flow cell immobilized with recombinant biotinylated IL2 receptor Fc fusion. […] The binding curves resulting from the bivalent binding of the IgGs or T cell bispecifics were approximated to a 1:1 Langmuir binding and fitted with that model (which is not correct, but gives an idea of the avidity). The apparent avidity constants for the interactions were derived from the rate constants of the fitting using the Bia Evaluation software (GE Healthcare).

[7] = molecular target: T1, recombinant biotinylated monomeric Fc …; experiment: SPR Biacore, affinity (monovalent), antibody captured via anti-Fab
Method: as §2
For affinity measurement, direct coupling of around 6000-7000 resonance units (RU) of the anti-human Fab specific antibody (Fab capture kit, GE Healthcare) was performed on a CM5 chip at pH 5.0 using the standard amine coupling kit (GE Healthcare). Anti-FolR1 IgGs or T cell bispecifics were captured at 20 nM with a flow rate of 10 μl/min for 20 or 40 sec, the reference flow cell was left without capture. Dilution series (6.17 to 500 nM or 12.35 to 3000 nM) of human or cyno Folate Receptor 1 Fc fusion were passed on all flow cells at 30 μl/min for 120 or 240 sec to record the association phase. The dissociation phase was monitored for 240 s and triggered by switching from the sample solution to HBS-EP. The chip surface was regenerated after every cycle using a double injection of 60 sec 10 mM Glycine-HCl pH 2.1 or pH 1.5. Bulk refractive index differences were corrected for by subtracting the response obtained on the reference flow cell 1. The affinity constants for the interactions were derived from the rate constants by fitting to a 1:1 Langmuir binding using the Bia Evaluation software (GE Healthcare).

[8] = molecular target: T6, human FolR2 on transfected HEK cells (human, UniProt P14207 17-230); experiment: flow cytometry on transfected HEK cells
T6 construct: whole, on cells
T6 sequence (P14207 17-230): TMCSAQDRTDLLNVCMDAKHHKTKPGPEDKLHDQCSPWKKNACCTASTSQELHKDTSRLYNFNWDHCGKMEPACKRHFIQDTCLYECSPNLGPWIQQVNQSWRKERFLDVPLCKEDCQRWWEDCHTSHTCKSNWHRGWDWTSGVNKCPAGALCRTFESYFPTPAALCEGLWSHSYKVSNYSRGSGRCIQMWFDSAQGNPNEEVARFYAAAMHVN

[9] = molecular target: T3, recombinant biotinylated monomeric Fc …; experiment: SPR Biacore, single injection on immobilized antigen-Fc
Method: as §2
(§3) First the anti-FolR1 IgGs were analyzed by single injections (Table 1) to characterize their crossreactivity (to human, murine and cyno FolR1) and specificity (to human FolR1, human FolR2, human FolR3). Recombinant biotinylated monomeric Fc fusions of human, cynomolgus and murine Folate Receptor 1 (FolR1-Fc) or human Folate Receptor 2 and 3 (FolR2-Fc, FolR3-Fc) were directly coupled on a SA chip using the standard coupling instruction (Biacore, Freiburg/Germany). The immobilization level was about 300-400 RU. The IgGs were injected for 60 seconds at a concentration of 500 nM.

[10] = molecular target: T4, recombinant biotinylated monomeric Fc …; experiment: as above
Method: as §2, §3

[11] = molecular target: T3, recombinant biotinylated monomeric Fc …; experiment: SPR ProteOn, Fab analyte on immobilized antigen-Fc; remark: listed apart in the source
Method: Immobilization of antigens (ligand): Recombinant antigens were diluted with PBST (10 mM phosphate, 150 mM sodium chloride pH 7.4, 0.005% Tween 20) to 10 μg/ml, then injected at 30 μl/minute in vertical orientation. Injection of analytes: For ‘one-shot kinetics’ measurements, injection direction was changed to horizontal orientation, two-fold dilution series of purified Fab (varying concentration ranges) were injected simultaneously along separate channels 1-5, with association times of 150 or 200 s, and dissociation times of 200 or 600 s, respectively. Buffer (PBST) was injected along the sixth channel to provide an “in-line” blank for referencing. Association rate constants (kₒₙ) and dissociation rate constants (koff) were calculated using a simple one-to-one Langmuir binding model in ProteOn Manager v3.1 software by simultaneously fitting the association and dissociation sensorgrams. The equilibrium dissociation constant (KD) was calculated as the ratio koff/kₒₙ.

| Binder | binding result [3] | binding result [4] | binding result [5] | other results |
| --- | --- | --- | --- | --- |
| 15B6 Fab (Fab, V domains shown, bacterial Fab) VH: QVQLVQSGAEVKKPGASVKVSCKASGYTFTSYYMHWVRQAPGQGLEWMGIINPSGGSTSYAQKFQGRVTMTRDTSTSTVYMELSSLRSEDTAVYYCARNYYIGIVPFDYWGQGTLVTVSS VL: QAVVTQEPSLTVSPGGTVTLTCGSSTGAVTTSNYANWVQEKPGQAFRGLIGGTNKRAPGTPARFSGSLLGGKAALTLSGAQPEDEAEYYCALWYSNLWVFGGGTKLTVL | no binding | no binding | no binding | Kd [1]: 13.9 nM; Kd [2]: 19.1 nM |
| 16F12 Fab (Fab, V domains shown, bacterial Fab) VH: QVQLVQSGAEVKKPGASVKVSCKASGYTFTSYYMHWVRQAPGQGLEWMGIINPSGGSTSYAQKFQGRVTMTRDTSTSTVYMELSSLRSEDTAVYYCARNFTVLRVPFDYWGQGTLVTVSS VL: QAVVTQEPSLTVSPGGTVTLTCGSSTGAVTTSNYANWVQEKPGQAFRGLIGGTNKRAPGTPARFSGSLLGGKAALTLSGAQPEDEAEYYCALWYSNLWVFGGGTKLTVL | no binding | no binding | no binding | Kd [1]: 90.9 nM; Kd [2]: 68 nM |
| Farletuzumab (antibody, V domains shown) VH: EVQLVESGGGVVQPGRSLRLSCSASGFTFSGYGLSWVRQAPGKGLEWVAMISSGGSYTYYADSVKGRFAISRDNAKNTLFLQMDSLRPEDTGVYFCARHGDDPAWFAYWGQGTPVTVSS VL: DIQLTQSPSSLSASVGDRVTITCSVSSSISSNNLHWYQQKPGKAPKPWIYGTSNLASGVPSRFSGSGSGTDYTFTISSLQPEDIATYYCQQWSSYPYMYTFGQGTKVEIKR | – | – | – | Kd [6]: 0.65 nM; Kd [7]: 67.3 nM |
| 16D5 Fab (Fab, V domains shown, bacterial Fab) VH: not shown VL: QAVVTQEPSLTVSPGGTVTLTCGSSTGAVTTSNYANWVQEKPGQAFRGLIGGTNKRAPGTPARFSGSLLGGKAALTLSGAQPEDEAEYYCALWYSNLWVFGGGTKLTVL | no binding | no binding | no binding | – |
| 21G8 Fab (Fab, V domains shown, bacterial Fab) VH: not shown VL: QAVVTQEPSLTVSPGGTVTLTCGSSTGAVTTSNYANWVQEKPGQAFRGLIGGTNKRAPGTPARFSGSLLGGKAALTLSGAQPEDEAEYYCALWYSNLWVFGGGTKLTVL | no binding | – | – | – |
| 21A5 IgG (antibody, V domains shown, human IgG1) VH: not shown VL: QAVVTQEPSLTVSPGGTVTLTCGSSTGAVTTSNYANWVQEKPGQAFRGLIGGTNKRAPGTPARFSGSLLGGKAALTLSGAQPEDEAEYYCALWYSNLWVFGGGTKLTVL | – | – | – | binding result [8]: no binding; binding result [9]: no binding (tested: 500 nM); binding result [10]: no binding (tested: 500 nM) |
| 5D9 Fab (Fab, V domains shown, bacterial Fab) VH: QVQLVQSGAEVKKPGASVKVSCKASGYTFTSYYMHWVRQAPGQGLEWMGIINPSGGSTSYAQKFQGRVTMTRDTSTSTVYMELSSLRSEDTAVYYCARSYIDMDYWGQGTLVTVSS VL: EIVLTQSPGTLSLSPGERATLSCRASQSVSSSYLAWYQQKPGQAPRLLIYGASSRATGIPDRFSGSGSGTDFTLTISRLEPEDFAVYYCQQDNWSPTFGQGTKVEIK | – | – | – | binding result [11]: no binding |
| 6B6 Fab (Fab, V domains shown, bacterial Fab) VH: QVQLVQSGAEVKKPGASVKVSCKASGYTFTSYYMHWVRQAPGQGLEWMGIINPSGGSTSYAQKFQGRVTMTRDTSTSTVYMELSSLRSEDTAVYYCARSYVDMDYWGQGTLVTVSS VL: EIVLTQSPGTLSLSPGERATLSCRASQSVSSSYLAWYQQKPGQAPRLLIYGASSRATGIPDRFSGSGSGTDFTLTISRLEPEDFAVYYCQQDIWSPTFGQGTKVEIK | – | – | – | binding result [11]: no binding |
| 21A5 Fab (Fab, V domains shown, bacterial Fab) VH: not shown VL: QAVVTQEPSLTVSPGGTVTLTCGSSTGAVTTSNYANWVQEKPGQAFRGLIGGTNKRAPGTPARFSGSLLGGKAALTLSGAQPEDEAEYYCALWYSNLWVFGGGTKLTVL | no binding | no binding | – | – |
